Consider 21 sequences from a protein production outcome set (Wang et al. 2014).

The nature of this data set: label from the status in PepcDB records.
Regarding “MRMRSGTAVAGVAALAVAGMALTAAFEPVWAHGPTRQKVRESIEINAAPAKVWAVIGNFQDMSWLPPVTKTEGEKGNEIGATRRLTLTGGATVDEELYKFDAAAMTYSYRITAVDVKVLPVTNYSSTLTVTPSADGKGATLEWAGAFYRGFPNNDPPPELSDEAAKTAVSGLYKAGLEALKKKIESGS”, the protein production entry is recorded as “failed”.

Regarding “MSVCTAHHPMTSPLPPFPLQQRLSRRTLLRFITHTAGIALLNPIGLAQSAPRAGKPPASSSDFISRRPPQAQRRFVSAAVEQQLIHIKAKIADPELAWLFENCYPNTLDTTVSTGTRNGKPDTFIITGDIQALWLRDSAAQVQAYVPLARHDPALRRLFHGLIQRHAACIRLDPYANAFLPDGVSHPLKWSVNDVTQMQPGIGERKWEIDSLCYPIRLAHAYWRASDDIAPFDEDWRQAMHIVLRTFGEQQRLQTPGPYTFQRPALRATETLMLEGYGAPTRPNGMLHSMFRPSDDACTYPLSVPENLFAVITLRQLAAMSEAIHHDAAFASQCRSLAHEIAQATQQFGLMHDADNHPFWAYEVDGYGNQLFMDDANAPSLLSLAYLGCCTSTDPVFLRTRDLAWSARNPYFCQGRAAVGVGSPHTGRHTIWPMSLIHYALSSHDDTQIQHCLHWLKTTHAGTGFMHEAFHQDDPSTFTRSWFAWANSLFGELIVDLAQRKPHLLGVNRSAALLHG”, the protein production result was “failed”.

Regarding “SDPDADRVGIACKNDKGEWVLINGNQTCLMYLYYIITQYNKLGKMTGNEFCVKTIVTTELIKKIADKNHIEMLDCYTGFKWIAREIRLREGKKKYIGGGEESYGFLAEDFVRDKDAVSACCLIAEVAAWAKDNGKTLYQLLMDIYVEYGFSKE”, the protein production result is “failed”.

For “PQKIFTPSAEIVKYTKIIAMEKLYAVFTDYEHDKVSRDEAVNKIRLDTEEHLKEKFPEVDQFEIIESFNIVAKEVFRSIILNEYKRCDGRD”, the protein production entry was “not failed”.

In the case of “MVTPFPEVSEWLCIGQIVGAHGLRGEVKVKPFSDFPERFTVPGCRWLRSPRQPQPYAVTLLRGRFLPRAEQFVVTFAEISDRTAAEALKGAEILVPASDRPPLAANEYHLMDLIGLAVYHQGERVGEVVGLVNAGNDLLEVQLLDPAPKAPQSVYIPFVPAIVPVVDLAARRIEIDPPLGLLPLEHHHHHH”, the protein production result was “failed”.

“MKAYLGLYTARLETPARSLKEKRALIKPALERLKARFPVSAARLYGLDAWGYEVVGFTLLGNDPAWVEETMRAAARFLAEAGGFQVALEEFRLEAFELDGLL”: the protein production entry was “not failed”.

Consider “MSSMNANAENSESKPKSGNDPLDHEGGDSSAASEDPNKSKTVSSDDDLSETNKEKEEEDCEECWLSRYLKKGDCKDAFIEVDHCREVKDDGTNCRDARLKLITCMYTNVDYYGPFLAMQKEMRTQSLKELEQGEEAAAAAKKKEEEEETKGK”, for which the protein production result was “failed”.

For the sequence “MSRKTMNPTTVTQQLQKTYQAVGDGLLSEAFGLVRASVPSQQSHFLTRIDDLENVYRQLLSYFAQGVKDEKQAEMLLYLKRKLIGLAAEVHRESVVAQGTGLFYDRLRYRRSIGFESLVTLLEQAETSTVRKQFDELVRLIFDSLWTADALTDEEAAALSHAGEYIRLVAASALTMALQQQWHSKKLYFLLEELARPDITADYRARLLVGVVLTLRSYPHHTRLYYNEIALRLEAVNEHIPLEPTLEMLSIRFLFACETESITKHLQTELFSDIQKIAPDLRKFGMGDTESIQETGNPEWMEELEKSGLGDKIREFSELQLEGADVMHSSFMNLKGSSFFREMHNWFLPFDAAHSRIAPLLEENAVLKQLVEAIGPQLCNSDRYSFIVSMESLPAALRGSAMGAVGGELDALKEQIKQDVPVGETGKLDTAIKSYLQDLYRFYKVCERKNEFDDIFLSPIPPDLPVLDRYLYKRDTLLHTAEFLFRRKHYDRAAKLLADLAEGKESATDTTLHQKLGFSLQQQGLFAQALAAYSRAELIDTENEWLLKRMAHCYRQLCRPAEAAEIYERLFERNPHEATLLLQRGNALVEDSRYDEALQCFFRYEFSVDDASKARRPIAWCLFLTGQYERAGDYYRTILESDDLSTFTDRLNAGHTSLAMGQIPVAIDHYLAGLKLTPNGKDEFLAAYTADIPVLLKAGIEDAVIRLIPEVLRLHPN”, the protein production entry is reported as “failed”.

Take “MGLLSDPVRRRALARLVLRLNAPLCVLSYVAGIAWFLALVFPPLTQRTYMSENAMGSTMVEEQFAGGDRARAFARDFAAHRKKSGALPVAWLERTMRSVGLEVYTQSFSRKLPFPDETHERYMVSGTNVYGILRAPRAASTESLVLTVPCGSDSTNSQAVGLLLALAAHFRGQIYWAKDIVFLVTEHDLLGTEAWLEAYHDVNVTGMQSSPLQGRAGAIQAAVALELSSDVVTSLDVAVEGLNGQLPNLDLLNLFQTFCQKGGLLCTLQGKLQPEDWTSLDGPLQGLQTLLLMVLRQASGRPHGSHGLFLRYRVEALTLRGINSFRQYKYDLVAVGKALEGMFRKLNHLLERLHQSFFLYLLPGLSRFVSIGLYMPAVGFLLLVLGLKALELWMQLHEAGMGLEEPGGAPGPSVPLPPSQGVGLASLVAPLLISQAMGLALYVLPVLGQHVATQHFPVAEAEAVVLTLLAIYAAGLALPHNTHRVVSTQAPDRGWMALKLVALIYLALQLGCIALTNFSLGFLLATTMVPTAALAKPHGPRTLYAALLVLTSPAATLLGSLFLWRELQEAPLSLAEGWQLFLAALAQGVLEHHTYGALLFPLLSLGLYPCWLLFWNVLFWK”: the protein production result is “failed”.

As to “MTMTRERLYLFDTTLRDGQQTPGIDFSVEDKIAIAKLLDEFGMDYVEGGYPGANPTDTAFFQQKRTASAKFVAFGMTKRAGVSASNDPGLAALVQSKSDAICFVAKSWDYHVRVALGCTNEENLESIKTSVETAVASGKEAMVDCEHFFDGFKANPDYALACAKTAYDAGARWVVLCDTNGGTQPSEVRTIVAKVIASSIPGDHLGIHAHDDTGQAVANSLAAVEAGVRQIQGTLNGIGERCGNANLISIVPTLALKPAFADRFVSGISAEALTGISRLSRAFDELLNRAPEAQAPYVGASAFATKAGIHASALAKEPATYEHVPPESVGNRRRVMVSDQGGKANFLAELKRRGIEVPRDDHRLDALISVVKEREAEGYAYEGADASFELLARKMLHGLPEFFNVTSFRCMVERRFDANGNLKTVSEAIVKVEVDGEEKMSVAEGHGPVNALDIALRKDLGKYQSEIVDLELADFKVRILNGGTEAITRVLIESHDGTGARWWTVGVSENIIDASFQALMDSIIYKLMKNREMAGLVAAE”, the protein production result is listed as “failed”.

Take “MIEAYKDYWKRYIDFKGKSNRLEFWTPVLVHIISIFIIALIGAFSFIVGIFIVAAVLSALIGLFGLANIVPMAAVTLRRFYDAGRKRTTAIILIILSVVVNIVFDIIQVDSIAVFLNIVSIICTIILVIETLLPSKNVEDAQLKWL”: the protein production result is reported as “failed”.

Consider “MSILMLFGLATLRSATYGENEQLFTRQIVWDIAGFSLMFLVLFIKDRTIRNFSIILYVFSVVLLAALLVKGTPIGGSKRWFRVMGFSFQPSDFAKLSLIVLLPYLLEKRWFWRSFFLTVVPAVLIFLEPDLGTTLSVGLIWLFAVLASNVNKKPLVILLILVLVFLPVFFFFGLKDYQRARILSFLNPEEYGESYSYNVLQSIHAIGAGGLFGAGYMKGKANLMGYVPVSYTDFIVSVIGEEFGFIGIVFLLSLFGLLFFEVSRWILNVKDEYWEILMVSACGLIWFHVFENVSMNLGLLPVTGVPLPFISYGGTSTLVFSILVGLILKGIALARVEKKL”, for which the protein production entry is recorded as “failed”.

As to “MGGEDDELKGLLGLPEEETELDNLTEFNTAHNKRISTLTIEEGNLDIQRPKRKRKNSRVTFSEDDEIINPEDVDPSVGRFRNMVQTAVVPVKKKRVEGPGSLGLEESGSRRMQNFAFSGGLYGGLPPTHSEAGSQPHGIHGTALIGGLPMPYPNLAPDVDLTPVVPSAVNMNPAPNPAVYNPEAVNEPKKKKYAKEAWPGKKPTPSLLI”, the protein production entry is reported as “not failed”.

On to “SSISRANKKKPSMPNVSNDLSQKLYATMEKHKEVFFVIHLHAGPVINTLPPIVDPDPLLSCDLMDGRDAFLTLARDKHWEFSSLRRSKWSTLCMLVELHTQ”, for which the protein production result is given as “failed”.

As for “MCENEEYRERFPDKHFDLETVLQAKVRPICVVPERTFIGFFHREKSKEEEEKEDVSLDFLKGVMSFDSIWEEIMKQEPEESASEHVIYIVSWNDHYFVLLVNHDAYYIIDTLGERVYEGCNQAYVLKFDQDAEIKRLPSVIKDNKADMGSQKQGGKNKYEQPERSKESEEQGEEVVVCRGKESCREYIKSFLAAIPIQQVKADMKEGLVSSFHHRLQIELYYTKHLHHRQPNMFESSTTKVTVSEATVSMTVAWLLASQFSNSGGFGCEMAELLGIKV”, the protein production entry is given as “failed”.

For the sequence “MNQSPSILRKTRKGEYMAFADLAAEKTQGVDYDFLVLDRASAVAIVAPHGGWIEHGTSELATAVAGDDFSLYLFEGLKPKRPHSELHIPSEYFDENRCVDLVSRARIVIGMHGRADGDDPETIWLGGLGKELRDAIAAALEAAGFKAITSGHRLPGEHKNNICNRGINQAGVQLEPCRWSNRCLSATETHSTSATTAIISRLSIAA”, the protein production entry is listed as “failed”.

On to “MRELTSNEMNNVSGGDLASRLEASIVGSVAGFFAGSIWGGTRGGDGGGILGVGSIGQGVGMIYGGIAGAIGGAIGAFVIDKTLTYTYTTGFMNSLFSGTFAK”, for which the protein production entry is listed as “failed”.

With “MSYEFYGKTEQEAIKKAMRDLELKEGEFDVEILDKERVGFLFKKEMIKIRVSPHAKEVKKDDFEIKIGDEICDKILEFVKEMLIKMGYSVHLTIEPKEGGYVKISIETDSPNILIGREGKNLDSLQLLTNVYASKLIGENGAFNRVILDIGDYRERFKSRFINLAINSFHKVKRTRRSILLPSMNPFERRIVHTTLNRYSDIKTESEGDGNIKRIRVSYVRNNRYGINNSRGYQKRDIGFKK”, the protein production entry is “failed”.

Regarding “MASFYWRIKNEPYQVVECAMRALHFSSRHNKDIALVNLANVLHRAHFPADAAVVVHAALDDSDFFTSYYTLGNIYAMLGEYNHSVLCYDHALQARPGFEQAIKRKHAVLCQQKLEQKLEAQHRSLQRTLNELKEYQKQHDHYLRQQEILEKHKLIQEEQILRNIIHETQMAKEAQLGNHQICRLVNQQHSLHCQWDQPVRYHRGDIFENVDYVQFGEDSSTSSMMSVNFDVQSNQSDINDSVKSSPVAHSILWIWGRDSDAYRDKQHILWPKRADCTESYPRVPVGGELPTYFLPPENKGLRIHELSSDDYSTEEEAQTPDCSITDFRKSHTLSYLVKELEVRMDLKAKMPDDHARKILLSRINNYTIPEEEIGSFLFHAINKPNAPIWLILNEAGLYWRAVGNSTFAIACLQRALNLAPLQYQDVPLVNLANLLIHYGLHLDATKLLLQALAINSSEPLTFLSLGNAYLALKNISGALEAFRQALKLTTKCPECENSLKLIRCMQFYPFLYNITSSVCSGNCHEKTLDNSHDKQKYFDNSQSLDAAEEEPSERGTEEDPVFSVENSGRDSDALRLESTVVEESNGSDEMENSDETKMSEEILALVDEFQQAWPLEGFGGALEMKGRRLDLQGIRVLKKGPRDGVARSSCYGDCRSEDDEATEWITFQVKRVKKPKGDHKKTPGKKVETGQIENGHRYQANLEITGPKVASPGPQGLLDWKTRKVP”, the protein production result is listed as “failed”.

For the sequence “MFVAFNFNKIESITTEKEFKIILNDQIALGKIPDFSKIKITIKVNKDDLKYLDLNKIILFIEASSIKIPGSYKLPIKIKNLNSIHIAEYKLSKTNVLLNLDNKVSKLVKIEPKFKLEHHHHHH”, the protein production result is “failed”.

Take “MPTPTYPKASLIIRERGLPKREVLLSPDRQWTIGRQLDCSIRLTDAYVSRLHAVINAFLFRGQPLYFIRDAHSRNGTFLNGFPLQHSTLLHHEDVIGVGTTLLVFYYPDMFREISLDECPELTKGSTDSLPWRS”: the protein production entry is recorded as “failed”.
